These results are taken from US20090123452A1 (TORREY PINES INSTITUTE FOR MOLECULAR STUDIES AND CATALYST …, published 2009).

Residue numbers refer to the chain shown, from its start. In names and notes the source's numbering stands. Like-named read-outs stand apart in the source and are kept apart here.

In experiment [1] the target is T1, mutant antithrombin III AT3/SLGR-KI (human, UniProt P01008 33-464).
T1 construct: RCL residues IAGRSL are replaced by SLGRKI; also called AT3 (AT3/SLGR-KI)
T1 chain: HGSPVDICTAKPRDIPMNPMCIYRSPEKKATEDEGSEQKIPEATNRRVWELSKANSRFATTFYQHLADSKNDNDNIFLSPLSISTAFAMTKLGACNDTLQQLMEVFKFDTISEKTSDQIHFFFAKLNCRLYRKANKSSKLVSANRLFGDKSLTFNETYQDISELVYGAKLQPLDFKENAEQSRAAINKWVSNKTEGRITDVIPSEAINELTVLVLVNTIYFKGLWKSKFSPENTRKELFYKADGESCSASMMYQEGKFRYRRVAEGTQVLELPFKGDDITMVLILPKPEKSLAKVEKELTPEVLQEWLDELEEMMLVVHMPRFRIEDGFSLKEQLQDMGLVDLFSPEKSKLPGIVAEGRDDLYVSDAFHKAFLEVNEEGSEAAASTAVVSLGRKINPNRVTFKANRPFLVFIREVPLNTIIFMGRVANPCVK
As to the kind of experiment: phage display selection: complex with His-tagged AT3-SLGRKI bait captured by anti-His antibody on plate.

Experiment [2] concerns the target T1, mutant antithrombin III AT3/SLGR-KI. Described as above.

B1: Mutant MT-SP1 clone CPC-0023085 (phage) (enzyme)
chain: VVGGTDADEGEWPWQVSLHALGQGHFCGASLISPNWLVSAAHCYIDDRGFRYSDPTQWTAFLGLHDQSQRSAPGVQERRLKRIISHPFFNDFTFDYDIALLELEKPAEYSSMVRPISLPDASHVFPAGKAIWVTGWGHTQYGGTGALILQKGEIRVINQTTCENLLPQQITPRMMCVGFLSGGVDSCQGDSGGPLSSVEADGRIFQAGVVSWGDGCAQRNKPGVYTRLPLFRDWIKENTGVSGSSGGGSEGGGSEGGGSEGGGSGGGSGSGDFDYEKMANANKGAMTENADENALQSDAKGKLDSVATDYGAAIDGFIGDVSGLANGNGATGDFAGSNSQMAQVGDGDNSPLMNNFRQYLPSLPQSVECRPFVFSAGKPYEFSIDCDKINLFRGVFAFLLYVATFMYVFSTFANILRNKES
notes: I41F/C122S
For B1, the binding result in experiment [1] is “binds”.

B2: Mutant MT-SP1 clone CPC-0025387 (phage) (enzyme)
chain: B1 chain
notes: I41F/C122S
For B2, in experiment [1], the binding result was “binds”.

B3: Mutant MT-SP1 clone CPC-0026232 (phage) (enzyme)
chain: B1 chain with L37M, V124D, Q218L
Take B3: in experiment [1], the binding result was “binds”.

B4: Mutant MT-SP1 clone CPC-0028333 (phage) (enzyme)
chain: B1 chain with F26I, T59K, F88L, F92Y, D214V
notes: T65K/F93L/F97Y/C122S/D217V
B4: the binding result in experiment [1] is reported as “binds”.

B5: Mutant MT-SP1 clone CPC-0025366 (phage) (enzyme)
chain: B1 chain with D8E, T93P, T139I
notes: D23E/I41F/T98P/C122S/T144I
Regarding B5, the binding result in experiment [1] is listed as “binds”.

B6: Mutant MT-SP1 clone CPC-0028341 (phage) (enzyme)
chain: B1 chain with F26T, P167S, Q206L
notes: I41T/C122S/P173S/Q209L
As for B6, the binding result in experiment [2] is reported as “binds”.

B7: Mutant MT-SP1 clone CPC-0027399 (phage) (enzyme)
chain: B1 chain with F26I, F94L
notes: F99L/C122S
For the molecule B7, the binding result in experiment [1] is listed as “binds”.

B8: Mutant MT-SP1 clone CPC-0027797 (phage) (enzyme)
chain: B1 chain with F26I, H65R, P126S, D214V
notes: H71R/C122S/P131S/D217V
Turning to B8, the binding result in experiment [1] is reported as “binds”.

B9: Mutant MT-SP1 clone CPC-0027484 (phage) (enzyme)
chain: B1 chain with F26I, N90K
notes: N95K/C122S
B9: the binding result in experiment [2] is on record as “binds”.

B10: Mutant MT-SP1 clone CPC-0025582 (phage) (enzyme)
chain: B1 chain with L165F, V241G
notes: I41F/C122S/L171F/V244G
Take B10: the binding result in experiment [1] is listed as “binds”.

B11: Mutant MT-SP1 clone CPC-0019595 (phage) (enzyme)
chain: B1 chain with F26I, I131T, N158D, T160A, F179L, D214V
notes: C122S/I136T/N164D/T166A/F184(A)L/D217V (chymotrypsin numbering); the STII leader is not counted
Turning to B11, the binding result in experiment [1] is “binds”.

B12: Mutant MT-SP1 clone CPC-0025720 (phage) (enzyme)
chain: B1 chain with F26I, H138R, Q169R
notes: C122S/H143R/Q175R
On to B12, for which the binding result in experiment [1] is given as “binds”.

B13: Mutant MT-SP1 clone CPC-0024153 (phage) (enzyme)
chain: B1 chain with A121T, V241G
notes: I41F/C122S/A126T/V244G
As for B13, in experiment [1], the binding result is reported as “binds”.

B14: Mutant MT-SP1 clone CPC-0028017 (phage) (enzyme)
chain: B1 chain with F26I, D214V
notes: C122S/D217V
For B14, the binding result in experiment [1] is “binds”.

B15: Mutant MT-SP1 clone CPC-0027706 (phage) (enzyme)
chain: B1 chain with F26I, F92Y, I131V, Q188H, S197I
notes: F97Y/C122S/I136V/Q192H/S201I
B15: the binding result in experiment [1] is “binds”.

B16: Mutant MT-SP1 clone CPC-0025876 (phage) (enzyme)
chain: B1 chain with L165F
notes: I41F/C122S/L171F
B16: the binding result in experiment [1] is listed as “binds”.

B17: Mutant MT-SP1 clone CPC-0026100 (phage) (enzyme)
chain: B1 chain with I148V, V241G
notes: I41F/C122S/I154V/V244G
Turning to B17, in experiment [1], the binding result is listed as “binds”.
